Earlier results, collected in paper PMC12687026.

Key:
[1] = tested on: His194; test: kinetics; settings: green (unconverted) LEA
[2] = tested on: Glu212; test: kinetics; settings: green (unconverted) LEA

LEA (least evolved ancestor), engineered Kaede-like green-to-red photoconvertible fluorescent protein (synthetic construct (reconstructed ancestral coral fluorescent protein))
pKa [1]: ∼7.5 | pKa [2]: ∼4.5
